From patent US20230050846A1, “TREATMENT OF HEPATIC AND CARDIOVASCULAR DISORDERS” (LIFESEARCH, priority 2019, published 2023)

Molecular target: cell surface F1Fo-ATPase (human)
Test: cell-based or functional assay

Substance: apoA-I purified from human plasma (from UniProt P02647 25-267) (ligand)
- HDL endocytosis by HepG2 cells (HDL-Alexa568 uptake), apoA-I 10 µg/mL, versus non-stimulated cells: 45%
